Source: patent US11976099B2, “Compositions and methods for treatment of bone associated diseases” (THE NATIONAL INSTITUTE FOR BIOTECHNOLOGY IN THE NEGEV LTD., priority 2016, dated 2024)

Tests used:
human c-FMS = human c-FMS (Homo sapiens, UniProt P07333); experiment: c-FMS phosphorylation assay in CD14+ monocytes (western blot); type: cell-based; design: host or cells: human peripheral blood CD14+ monocytes; conditions: CD14+ cells; 0.5 nM human M-CSFWT + 100 nM variant
Method: Phosphorylation assay—The experiment was performed on two cell types, BMMs and human peripheral blood CD14^+ monocytes, as follows: (i) BMMs from wild-type C57BL6 mice were purified by flushing the bone marrow from the femur and tibia as previously described (Levaot, N., Simoncic, P. D., Dimitriou, I.D., Scoffer, A., La Rose, J., Ng, A. H. M. et al. (2011) J. Clin. Invest. 121, 3244-3257). The cells were treated with ACK red cells lysis buffer (ThermoFisher Scientific, USA) and grown in complete α-MEM growth medium (Sigma-Aldrich, USA) containing 10% fetal bovine serum (FBS) (selected to not contain LPS to prevent macrophage differentiation), penicillin, streptomycin and L-glutamine. Recombinant murine M-CSF was added at a concentration of 40 ng/ml (Peprotech, Israel) for three days at 37° C. to induce adhesion and proliferation of monocytes. Then, 7×10^5 cells were transferred into a 6-well plate with complete α-MEM and 20 ng/ml murine M-CSF and RANKL (R&D Systems, USA) for 48 h. (ii) CD 14^+ monocytes (Lonza, Switzerland) were grown in complete α-MEM medium for five days in the presence of human M-CSF (20 ng/mL). […] The images were quantified using ImageJ. The quantified intensity values of the phosphorylated c-FMS for each sample were divided by the total c-FMS intensity, and then by the β-actin expression intensity. […]

[1] = tested on: MDA-MB-231 breast cancer cells; experiment: Direct cell binding assay, flow cytometry, MDA-MB-231; type: cell-based, human; conditions: for direct cell binding: 1 μM, 2.5 μM and 7.5 μM labeled protein; for relative cell binding ability: MDA-MB-231
Method: M-CSFM and two variants of M-CSFRGD (4.22 and 5.6) were labeled with a molar ratio of 1:1 of DyLight™ 488 NHS Ester (Thermo Fisher Scientific, USA) and the purified protein. The solution was incubated for 1 h at room temperature and the residual unbound dye was washed three times with Vivaspin (GE Healthcare life sciences, UK) with a 3,000 Da cutoff. […] MDA-MB-231 breast cancer cells were used for direct cell binding of the purified proteins. Cells were plated at a density of 10^5 per well in 96-well plates and were washed with […] of PBSA 0.1%. The cells were centrifuged at 150 g for 5 min, and the supernatant was removed; this step was repeated twice. Then, the labeled M-CSFRGD protein variants and the M-CSFM monospecific control were added in IBB+1% BSA to the cells at different concentrations (1, 2.5 and 7.5 μM) in a total volume of 100 μl and incubated at 4° C. with gentle agitation for 2 h. For c-FMS expression, the cells were stained with PE-anti human CD115 (BioLegend, USA) at a dilution of 1:50 and for αvβ3 integrin expression with FITC-anti human β3 integrin (BioLegend, USA) at a dilution of 1:25 for 30 min. Then, the cells were washed twice as described above and analyzed with Accuri C6 flow cytometry analyzer (BD Biosciences, USA). The mean fluorescence of the cells was subtracted from the other samples. The experiment was repeated three times at each concentration.
Assays for direct cell binding were conducted on breast cancer cell line MDA-MB-231 and murine primary cells with flow cytometer. MDA-MB-231 was used because the cells express αvβ3 integrin and c-FMS on the cell membrane, a protein expression pattern that imitates the osteoclast state just before reaching full differentiation and maturation. […] Murine primary cells that were obtained from bone marrow were tested for binding without any induction of differentiation (t=0). Such cells express high levels of c-FMS and low levels of αvβ3 integrin (FIGS. 11A and 11B), a state that imitates an early osteoclast differentiation stage.

Sequence of human c-FMS (P07333 20-972): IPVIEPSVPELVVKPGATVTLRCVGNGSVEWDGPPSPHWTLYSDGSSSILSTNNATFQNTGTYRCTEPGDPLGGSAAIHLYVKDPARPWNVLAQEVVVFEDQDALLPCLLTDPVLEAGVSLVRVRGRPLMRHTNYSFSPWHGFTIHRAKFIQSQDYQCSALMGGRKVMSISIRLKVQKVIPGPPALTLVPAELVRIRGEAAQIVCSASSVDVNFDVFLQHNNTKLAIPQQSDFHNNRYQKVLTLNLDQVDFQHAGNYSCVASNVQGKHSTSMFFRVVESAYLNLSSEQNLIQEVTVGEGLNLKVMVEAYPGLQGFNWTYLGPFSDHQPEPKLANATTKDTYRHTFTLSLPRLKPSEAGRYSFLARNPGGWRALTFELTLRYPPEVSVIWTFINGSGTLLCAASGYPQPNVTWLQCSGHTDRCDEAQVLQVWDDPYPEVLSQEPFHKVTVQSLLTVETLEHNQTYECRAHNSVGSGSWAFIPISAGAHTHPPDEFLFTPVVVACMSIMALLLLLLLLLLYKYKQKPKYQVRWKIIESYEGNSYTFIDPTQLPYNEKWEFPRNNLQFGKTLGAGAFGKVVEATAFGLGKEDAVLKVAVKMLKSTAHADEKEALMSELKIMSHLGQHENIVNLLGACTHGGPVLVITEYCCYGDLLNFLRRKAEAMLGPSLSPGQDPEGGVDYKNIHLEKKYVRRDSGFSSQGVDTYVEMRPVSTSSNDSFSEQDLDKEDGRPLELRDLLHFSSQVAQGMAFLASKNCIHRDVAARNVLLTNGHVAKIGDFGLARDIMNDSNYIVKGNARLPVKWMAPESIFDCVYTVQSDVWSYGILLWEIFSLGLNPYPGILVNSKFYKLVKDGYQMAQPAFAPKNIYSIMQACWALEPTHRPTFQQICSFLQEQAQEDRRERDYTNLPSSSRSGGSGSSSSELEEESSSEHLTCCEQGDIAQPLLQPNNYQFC

B1: M-CSFM: 158 amino acid M-CSF with cysteine at position 31 replaced by serine (SEQ ID NO: 2) (protein)
chain: EEVSEYCSHMIGSGHLQSLQRLIDSQMETSSQITFEFVDQEQLKDPVCYLKKAFLLVQDIMEDTMRFRDNTPNAIAIVQLQELSLRLKSCFTKDYEEHDKACVRTFYETPLQLLEKVKNVFNETKNLLDKDWNIFSKNCNNSFAECSSQGHERQSEGS
Human c-FMS
  c-FMS phosphorylation level: acted as an agonist, inducing phosphorylation
[1]
  direct cell binding: showed binding
  relative cell binding ability: weakest binder

B2: 5.6: bispecific M-CSFRGD variant from sort five; M-CSFM loop replaced by XXXRGDXXX motif; binds c-FMS and αvβ3 integrin (protein)
chain: EEVSEYCSHMIGSGHLQSLQRLIDTYPRGDMCSITFEFVDQEQLKDPVCYLKKAFLLVQDIMEDTMRFRDNTPNAIAIVQLQELSLRLKSCFTKDYEEHDKACVRTFYETPLQLLEKVKNVFNETKNLLDKDWNIFSKNCNNSFAECSSQGHERQSEGS
modifications: left off: small tags and cut ends
[1]
  direct cell binding: showed binding
  relative cell binding ability: best binding ability

B3: M-CSFC31S,M27R: M-CSF double mutant containing both C31S and M27R; monomeric, monospecific c-FMS antagonist (protein)
chain: EEVSEYCSHMIGSGHLQSLQRLIDSQRETSSQITFEFVDQEQLKDPVCYLKKAFLLVQDIMEDTMRFRDNTPNAIAIVQLQELSLRLKSCFTKDYEEHDKACVRTFYETPLQLLEKVKNVFNETKNLLDKDWNIFSKNCNNSFAECSSQGHERQSEGS
Human c-FMS
  c-FMS phosphorylation level: decreased phosphorylation of c-FMS
